Test results as given in the DeepSol protein solubility set.

assay: soluble on expression in E. coli; label from the status in PepcDB or PDB records

| Sequence | soluble on expression in E. coli |
| --- | --- |
| MGSDKIHHHHHHMLGLPGEMQYVPGIHSPNEGPRPMTIQRKQTREVRIGKVRIGGANPVVVQSMTNTDTRDVEQTVEQIRQLQEAGCEIVRLAVLNEDAAWAIKPIRSQVSVPLVADIHFDHRLAVSALEAGVDALRINPGNIGTRAAVDRVVDAAKAHNAVIRIGVNSGSLETDLIDQYGGPTPEAMVESAFRHIRMLEDRNFGDIKVSLKSSSVSRCIEAYTLLSAKCDYPLHIGVTEAGTVLRGSIKSAVGLGVLLWQGIGDTLRVSLTSDPVAEMAVAWEILRSLGLRSRGPEIIACPTCGRCEIGLIALAEEVERRLEGETESFKVAVMGCVVNGPGEAREADLGIAGGRDKGIIFRKGEIVRTVKGGSNLLAAFMEELDTFLAHRRAERKDD | not soluble |
| MEEYKLSHLKELEAESIHIIREVAAEFENPVMLYSIGKDSSVMVRLAEKAFYPGKVPFPLMHIDSKWKFKEMIQFRDEYAKKHGWNLIVESNMEAFHAGVGPFTHGSKVHTDLMKTQALLHALDKYKFDAAFGGARRDEEKSRAKERIFSFRDKFHQWDPKNQRPELWDIYNARVHKGESIRVFPISNWTELDIWQYIRLENIPIVPLYYAKERPVINLDGNIIMADDDRLPEKYRDQIEMKMVRFRTLGCWPLTGAVESGAATIEEIVEEMMTTTKSERTTRVIDFDQEGSMEQKKREGYF | not soluble |
| MAHHHHHHMVTVPKLQAMREAGEKIAMLTSYDASFAALLDRANVDVQLIGDSLGNVLQGQATTLPVTLDDIAYHTACVARAQPRGLVVADLPFGTYGTPADAFASAVKLMRAGAQMVKLEGGEWLAETVRFLVERAVPVCAHVGLTPQSVHAFGGFKVQGKTEAGAAQLLRDARAVEEAGAQLIVLEAVPTLVAAEVTRELSIPTIGIGAGAECSGQVLVLHDMLGVFPGKRPRFVKDFMQGQPSIFAAVEAYVRAVKDGSFPGPEHSF | soluble |
| MGSDKIHHHHHHMDISRKIERLELFLEQDKDNLNLMLDLIYLSLDAGSIDIAENYLYRAQQQHPESSQLIYLSGLISCQRKNFEQGLITFNSLLSAGVRSASILYQAAYCNIQLGNPETALERLIHASELSPETEILYLLARTQYQLKNFELAVSTLTALADSDAKYAPAHSLLSQIYMDIEQWADAQASAAKALALDPNNVTANITIGFITLNSNQYDQAARHFSQALNVNDESCRTHLGLAIIDVFQQRYVEAEQHLLKALSLQNDLLPGINLLGWLYLLTDRFALARDVFDRGVEVDRSYAEMYGGIAIVDILEKDETAARKNVAIALRLDKMSYAGNFAKILLLQNAQRLSQAEKVWKNLISSPIDDTGKTLEQAVIEQIRAYLKVTLH | not soluble |
| FDFKAGEEVLARWTDCRYYPAKIEAINKEGTFTVQFYDGVIRCLKRMHIKAMPEDAKGQDWIALVKA | soluble |
| MIMQKRLLNRNSSVVKSRNCLARHQHESSISKLHVSLRLHRCLRPIVRFDFLHNAGSKVCSQNSCPSPQLHVGTMALFHTVFILWPHFCGILWTVHEKLYNYLLSIEVY | soluble |
| MGSDKIHHHHHHMNQPDAYLWEQHIPGGCHWSGILRRGTTLRMTDVSGGANASVLFFNQEEKLERYNMADTLKSQHTFRLTKGHACHSDMGRIFCCITADSAGWHDTVCGLSDADLIRRKYGTARYQEHRNQMFRNGLDGMLIELGKWGLGMRDVVSNINFFSKVTANSAGELTFHSGNSKAGDHVDLSFEMDTLVVLSAAPHPLDPSTTYQPGAVNLAAFATPSSAIAECAHISENQRARQNTECLYACHGGAA | not soluble |
| MSLDSKLIFFDIDGTIYDHDKNIPESTRKTVAELQRQGHHVFIASGRSPFLVKPILEELGIHSFISYNGQFVVFENQVIYKNPLPENAIRRLLKQADEGKHPVVFMAEDTMKATVADHPHVLEGIGSLKTDYPETDDLFYEGKEIFQLLLFCQDEEEKAYAAFPEFDLVRWHELSTDVLPHGGSKAEGIKKVIERLPFDIGDTYAFGDGLNDLQMIEYVGTGVAMGNAVPELKEIADFVTKPVDEDGIAYAVKELGLLKEGHHHHHH | soluble |
| GEIEFIESSKDAGFPVINTPSKTKLEPSVFHQVFEGNKEPAVLRSGDPRLKANFEEAIFSKYIGNVNTHVDEYMLEAVDHYAGQLATLDISTEPMKLEDAVYGTEGLEALDLTTSAGYPYVALGIKKRDILSKKTKDLTKLKECMDKYGLNLPMVTYVKDELRSIEKVAKGKSRLIEASSLNDSVAMRQTFGNLYKTFHLNPGVVTGSAVGCDPDLFWSKIPVMLDGHLIAFDYSGYDASLSPVWFACLKMLLEKLGYTHKETNYIDYLCNSHHLYRDKHYFVRGGMPSGCSGTSIFNSMINNIIIRTLMLKVYKGIDLDQFRMIAYGDDVIASYPWPIDASLLAEAGKGYGLIMTPADKGECFNEVTWTNATFLKRYFRADEQYPFLVHPVMPMKDIHESIRWTKDPKNTQDHVRSLCLLAWHNGEHEYEEFIRKIRSVPVGRCLTLPAFSTLRRKWLDSFHHHHHH | soluble |
| MGSDKIHHHHHHMSLALQYFKALSDETRLRLIHVLNRHELSVNELVSILEMGQSRVSRHLKILTGAGLLTSRRDGLWVFYSAAAEGDGRAFLDAVTPFVTTDMVLQADLDMAQKIIEERALKTRQFFNAIAEDWDELNREVLGGFDLAGAVAEAMPQCETAVDLGCGTGSVIERMLQRSQQVIGVDGSPRMLELARRRFVEGAERVSLRIGELDHLPLRDGEADFASINMVLHHLSDPGVALGEIRRVLRLGGQLMVTDFDRHDNERMRSDYGDRWLGFEGVQLEGLLREAGFTVRECRRQGVAKGLALHLMLAEKTQQ | not soluble |
| AEVTQLSNGIVVATEHNPSAHTASVGVVFGSGAANENPYNNGVSNLWKNIFLSKENSAVAAKEGLALSSNISRDFQSYIVSSLPGSTDKSLDFLNQSFIQQKANLLSSSNFEATKKSVLKQVQDFEDNDHPNRVLEHLHSTAFQNTPLSLPTRGTLESLENLVVADLESFANNHFLNSNAVVVGTGNIKHEDLVNSIESKNLSLQTGTKPVLKKKAAFLGSEVRLRDDTLPKAWISLAVEGEPVNSPNYFVAKLAAQIFGSYNAFEPASRLQGIKLLDNIQEYQLCDNFNHFSLSYKDSGLWGFSTATRNVTMIDDLIHFTLKQWNRLTISVTDTEVERAKSLLKLQLGQLYESGNPVNDANLLGAEVLIKGSKLSLGEAFKKIDAITVKDVKAWAGKRLWDQDIAIAGTGQIEGLLDYMRIRSDMSMMRW | soluble |
| MSAKFQQETLKSRFAQAKVLVVGDVMLDRYWFGDVSRISPEAPVPVAKIGRIDQRAGGAANVARNIASLGGRAGLLSVTGNDEAADALDALMVQDGVASYLMRDKQIATTVKLRVVARNQQLIRLDFEEHPNCEVLEQIKQKYREILPEYDAIIFSDYGKGGLSHISDMIDWAKHAGKTVLIDPKGDDYEKYVGATLITPNRAELKEVVGSWKNESELTEKAQNLRRHLDLTAVLLTRSEEGMTLFSEGEPIYQPTRAQEVYDVSGAGDTVIAGMGLGLAAGCTMPEAMYLANTAAGVVVAKLGTAVCSFAELIKALSGQSTM | not soluble |
| MSLKSESKGGSNALVVSTFGLSEDIVKKDIIAPFEKENEAKVTLEVGNSADRFTKLKNNPNAGIDVIELAQANAAQGGKDGLFEKITEKEVPNLSQLTPGAKEVFESGAGVPIAVNSIGIVYNKEKLGKEIKNWDDLWSADLKGKISVPDVATTAGPLMLYVASEHAGQDITKDNGKAAFEAMKELKPNVVKTYSKSSDLANMFQSGEIEAAVVADFAVDIIQGAAENVTYIVPESGTYANYNTVNIPKKAQNKETAFKFVNARISEESQKAKAISLNEGPTNQQVTLSEKEAKNKTYGAIAERAKTVDFNFINSQLADWIDQWNRTMNQEGHHHHHH | soluble |
